Primed or numbered codes have the meaning given here. Where no end group is shown, it is not given here. [ ]: non-standard residue; d: D form. PEG 40 kDa″ = polyethylene glycol of 40 kDa covalently attached to the side chain; Nle = CCCC[C@H](N)C(=O)O; Aib = CC(C)(N)C(=O)O
What was measured:
Experiment in all cases: cell-based or functional assay
GIP receptor = biological target: T1, GIP receptor (UniProt P48546 22-466)
T1 sequence (looked up): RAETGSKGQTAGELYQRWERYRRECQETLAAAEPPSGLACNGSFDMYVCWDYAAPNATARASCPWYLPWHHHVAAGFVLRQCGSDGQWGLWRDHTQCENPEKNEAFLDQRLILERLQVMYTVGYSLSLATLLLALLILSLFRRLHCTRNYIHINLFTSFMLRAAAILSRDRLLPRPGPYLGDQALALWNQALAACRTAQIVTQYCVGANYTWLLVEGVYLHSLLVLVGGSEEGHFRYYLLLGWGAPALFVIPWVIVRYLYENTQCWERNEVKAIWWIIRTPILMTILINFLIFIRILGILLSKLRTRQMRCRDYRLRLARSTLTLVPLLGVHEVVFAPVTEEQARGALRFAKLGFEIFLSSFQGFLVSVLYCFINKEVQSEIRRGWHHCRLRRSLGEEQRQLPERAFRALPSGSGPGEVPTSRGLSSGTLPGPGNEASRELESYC

GLP-1 receptor = GLP-1 receptor (UniProt P43220 24-463, limits assumed)
glucagon receptor [1] = biological target: glucagon receptor (UniProt P47871 26-477, limits assumed)
Target sequence in this assay (P47871 26-477 limits assumed): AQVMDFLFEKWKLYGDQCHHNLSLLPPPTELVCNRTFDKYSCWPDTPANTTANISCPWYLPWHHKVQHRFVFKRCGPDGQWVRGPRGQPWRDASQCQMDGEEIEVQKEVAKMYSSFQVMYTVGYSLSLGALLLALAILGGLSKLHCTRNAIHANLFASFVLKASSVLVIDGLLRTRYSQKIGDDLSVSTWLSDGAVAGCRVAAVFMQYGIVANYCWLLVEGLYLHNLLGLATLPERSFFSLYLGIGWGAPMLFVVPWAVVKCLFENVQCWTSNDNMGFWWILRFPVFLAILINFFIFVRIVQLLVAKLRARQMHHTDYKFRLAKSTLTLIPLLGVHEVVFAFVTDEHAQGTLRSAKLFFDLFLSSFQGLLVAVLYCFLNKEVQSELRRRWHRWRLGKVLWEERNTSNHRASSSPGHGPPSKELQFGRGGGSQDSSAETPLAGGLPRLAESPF

glucagon receptor [2] = biological target: glucagon receptor (UniProt P47871 26-477, limits assumed); remark: listed apart in the source
Target sequence in this assay (P47871 26-477 limits assumed): as above

| Binder | EC50 (GIP receptor) [nM] | relative activity (GIP receptor) [%] | EC50 (GLP-1 receptor) [nM] | relative activity (GLP-1 receptor) [%] | EC50 (glucagon receptor [1]) [nM] | relative activity (glucagon receptor [1]) [%] | % activity* (glucagon receptor [2]) [%] |
| --- | --- | --- | --- | --- | --- | --- | --- |
| Y[Aib]QGTFTSDYSIYLD[Aib]QAA[Aib]EFVNWLLAGGPSSGAPPPSC-NH2 (N-terminus assumed; SMILES CC[C@H](C)[C@H](NC(=O)[C@H](CO)NC(=O)[C@H](Cc1ccc(O)cc1)NC(=O)[C@H](CC(=O)O)NC(=O)[C@H](CO)NC(=O)[C@@H](NC(=O)[C@H](Cc1ccccc1)NC(=O)[C@@H](NC(=O)CNC(=O)[C@H](CCC(N)=O)NC(=O)C(C)(C)NC(=O)[C@@H](N)Cc1ccc(O)cc1)[C@@H](C)O)[C@@H](C)O)C(=O)N[C@@H](Cc1ccc(O)cc1)C(=O)N[C@@H](CC(C)C)C(=O)N[C@@H](CC(=O)O)C(=O)NC(C)(C)C(=O)N[C@@H](CCC(N)=O)C(=O)N[C@@H](C)C(=O)N[C@@H](C)C(=O)NC(C)(C)C(=O)N[C@@H](CCC(=O)O)C(=O)N[C@@H](Cc1ccccc1)C(=O)N[C@H](C(=O)N[C@@H](CC(N)=O)C(=O)N[C@@H](Cc1c[nH]c2ccccc12)C(=O)N[C@@H](CC(C)C)C(=O)N[C@@H](CC(C)C)C(=O)N[C@@H](C)C(=O)NCC(=O)NCC(=O)N1CCC[C@H]1C(=O)N[C@@H](CO)C(=O)N[C@@H](CO)C(=O)NCC(=O)N[C@@H](C)C(=O)N1CCC[C@H]1C(=O)N1CCC[C@H]1C(=O)N1CCC[C@H]1C(=O)N[C@@H](CO)C(=O)N[C@@H](CS)C(N)=O)C(C)C) [mt-250] | 0.062 | 30.6 | 0.033 | 63.6 | 0.667 | 6.3 |  |
| Y[Aib]QGTFTSDYSIYLDEQAA[Aib]EFVNWLLAGGPSSGAPPPSC-NH2 (N-terminus assumed; SMILES CC[C@H](C)[C@H](NC(=O)[C@H](CO)NC(=O)[C@H](Cc1ccc(O)cc1)NC(=O)[C@H](CC(=O)O)NC(=O)[C@H](CO)NC(=O)[C@@H](NC(=O)[C@H](Cc1ccccc1)NC(=O)[C@@H](NC(=O)CNC(=O)[C@H](CCC(N)=O)NC(=O)C(C)(C)NC(=O)[C@@H](N)Cc1ccc(O)cc1)[C@@H](C)O)[C@@H](C)O)C(=O)N[C@@H](Cc1ccc(O)cc1)C(=O)N[C@@H](CC(C)C)C(=O)N[C@@H](CC(=O)O)C(=O)N[C@@H](CCC(=O)O)C(=O)N[C@@H](CCC(N)=O)C(=O)N[C@@H](C)C(=O)N[C@@H](C)C(=O)NC(C)(C)C(=O)N[C@@H](CCC(=O)O)C(=O)N[C@@H](Cc1ccccc1)C(=O)N[C@H](C(=O)N[C@@H](CC(N)=O)C(=O)N[C@@H](Cc1c[nH]c2ccccc12)C(=O)N[C@@H](CC(C)C)C(=O)N[C@@H](CC(C)C)C(=O)N[C@@H](C)C(=O)NCC(=O)NCC(=O)N1CCC[C@H]1C(=O)N[C@@H](CO)C(=O)N[C@@H](CO)C(=O)NCC(=O)N[C@@H](C)C(=O)N1CCC[C@H]1C(=O)N1CCC[C@H]1C(=O)N1CCC[C@H]1C(=O)N[C@@H](CO)C(=O)N[C@@H](CS)C(N)=O)C(C)C) [mt-251] | 0.033 | 57.6 | 0.015 | 140 | 2.76 | 1.52 |  |
| Y[Aib]QGTFTSDYSIYLDEQAA[Aib]EFVCWLLAG-NH2 (N-terminus assumed; SMILES CC[C@H](C)[C@H](NC(=O)[C@H](CO)NC(=O)[C@H](Cc1ccc(O)cc1)NC(=O)[C@H](CC(=O)O)NC(=O)[C@H](CO)NC(=O)[C@@H](NC(=O)[C@H](Cc1ccccc1)NC(=O)[C@@H](NC(=O)CNC(=O)[C@H](CCC(N)=O)NC(=O)C(C)(C)NC(=O)[C@@H](N)Cc1ccc(O)cc1)[C@@H](C)O)[C@@H](C)O)C(=O)N[C@@H](Cc1ccc(O)cc1)C(=O)N[C@@H](CC(C)C)C(=O)N[C@@H](CC(=O)O)C(=O)N[C@@H](CCC(=O)O)C(=O)N[C@@H](CCC(N)=O)C(=O)N[C@@H](C)C(=O)N[C@@H](C)C(=O)NC(C)(C)C(=O)N[C@@H](CCC(=O)O)C(=O)N[C@@H](Cc1ccccc1)C(=O)N[C@H](C(=O)N[C@@H](CS)C(=O)N[C@@H](Cc1c[nH]c2ccccc12)C(=O)N[C@@H](CC(C)C)C(=O)N[C@@H](CC(C)C)C(=O)N[C@@H](C)C(=O)NCC(N)=O)C(C)C) [mt-258] | 0.057 | 16.8 | 0.0202 | 58.9 | 0.487 | 14.1 |  |
| Y[Aib]QGTFTSDYSIYLDSQAA[Aib]EFVCWLLAG-NH2 (N-terminus assumed; SMILES CC[C@H](C)[C@H](NC(=O)[C@H](CO)NC(=O)[C@H](Cc1ccc(O)cc1)NC(=O)[C@H](CC(=O)O)NC(=O)[C@H](CO)NC(=O)[C@@H](NC(=O)[C@H](Cc1ccccc1)NC(=O)[C@@H](NC(=O)CNC(=O)[C@H](CCC(N)=O)NC(=O)C(C)(C)NC(=O)[C@@H](N)Cc1ccc(O)cc1)[C@@H](C)O)[C@@H](C)O)C(=O)N[C@@H](Cc1ccc(O)cc1)C(=O)N[C@@H](CC(C)C)C(=O)N[C@@H](CC(=O)O)C(=O)N[C@@H](CO)C(=O)N[C@@H](CCC(N)=O)C(=O)N[C@@H](C)C(=O)N[C@@H](C)C(=O)NC(C)(C)C(=O)N[C@@H](CCC(=O)O)C(=O)N[C@@H](Cc1ccccc1)C(=O)N[C@H](C(=O)N[C@@H](CS)C(=O)N[C@@H](Cc1c[nH]c2ccccc12)C(=O)N[C@@H](CC(C)C)C(=O)N[C@@H](CC(C)C)C(=O)N[C@@H](C)C(=O)NCC(N)=O)C(C)C) [mt-259] | 0.0799 | 12 | 0.0189 | 63 | 0.297 | 23.1 |  |
| HSQGTFTSDYSKYLDTRRAAEFVAWL[Nle]DE [Peptide J backbone with Q at position 3] |  |  |  |  |  |  | 25 |
| Y[Aib]QGTFTSDYSIYLDKQAA[Aib]EFVNWLLAGGPSSGAPPPSC-NH2 (N-terminus assumed; SMILES CC[C@H](C)[C@H](NC(=O)[C@H](CO)NC(=O)[C@H](Cc1ccc(O)cc1)NC(=O)[C@H](CC(=O)O)NC(=O)[C@H](CO)NC(=O)[C@@H](NC(=O)[C@H](Cc1ccccc1)NC(=O)[C@@H](NC(=O)CNC(=O)[C@H](CCC(N)=O)NC(=O)C(C)(C)NC(=O)[C@@H](N)Cc1ccc(O)cc1)[C@@H](C)O)[C@@H](C)O)C(=O)N[C@@H](Cc1ccc(O)cc1)C(=O)N[C@@H](CC(C)C)C(=O)N[C@@H](CC(=O)O)C(=O)N[C@@H](CCCCN)C(=O)N[C@@H](CCC(N)=O)C(=O)N[C@@H](C)C(=O)N[C@@H](C)C(=O)NC(C)(C)C(=O)N[C@@H](CCC(=O)O)C(=O)N[C@@H](Cc1ccccc1)C(=O)N[C@H](C(=O)N[C@@H](CC(N)=O)C(=O)N[C@@H](Cc1c[nH]c2ccccc12)C(=O)N[C@@H](CC(C)C)C(=O)N[C@@H](CC(C)C)C(=O)N[C@@H](C)C(=O)NCC(=O)NCC(=O)N1CCC[C@H]1C(=O)N[C@@H](CO)C(=O)N[C@@H](CO)C(=O)NCC(=O)N[C@@H](C)C(=O)N1CCC[C@H]1C(=O)N1CCC[C@H]1C(=O)N1CCC[C@H]1C(=O)N[C@@H](CO)C(=O)N[C@@H](CS)C(N)=O)C(C)C) [mt-252] | 0.013 | 146 | 0.018 | 117 | 0.319 | 13.2 |  |
| Y[Aib]QGTFTSDYSIYLDKQAA[Aib]EFVNWLLAGGPSSGAPPPSC(PEG 40 kDa″)-NH2 [mt-255] | 0.013 | 146 | 0.018 | 117 | 5.46 | 2.45 |  |

— patent US20110166062A1 (INDIANA UNIVERSITY RESEARCH AND TECHNOLOGY, published 2011)
